Laboratory results taken from US20160159888A1 (CANCER RESEARCH TECHNOLOGY, published 2016).

Experiments:
[1] = target: T1, recombinant S100A4 protein (species not stated for the experiment); assay: SPR (BIAcore 2000), S100A4 amine-coupled to CM5 chip, mAb injected, 1:1 fit
T1 construct: also called immobilized S100A4; oligomeric S100A4
Procedure: All SPR analyses were conducted on a BIAcore 2000 system (GE-Healthcare Life Sciences, Upsala, Sweden). The experiments were performed at 25° C. using HBST/Ca (10 mM HEPES, 150 mM NaCl, 0.005% Tween® and 50 μM CaCl2) as running buffer. The S100A4 protein was immobilized on a sensor chip CM5 (GE-Healthcare, BR-1000-12) using the amine coupling kit from GE Healthcare (BR-1000-50). The flow rate was set to 5 μl/min. The flow cells were activated individually by injecting 35 μl freshly mixed 0.4 M EDC ((N-(3-dimethylaminopropyl)-N′-ethylcarbodiimide hydrochloride) in 0.05 M NHS (N-hydroxysuccinimide) solution. Then 5 μg/ml S100A4 protein diluted in 10 mM acetic acid, pH 5.0 was injected for 1 to 10 minutes until the desired level of immobilization was reached (about 400 to 800 RU). The remaining active groups were deactivated by injecting 35 μl 1 M ethanolamine (pH 8.5). All experiment included a reference surface which was prepared by activating and deactivating of the surface of flow cell 1 (FC1). The blank surface reference was used to correct for bulk effects and nonspecific binding. The channel referencing was done automatically by the BIACORE 2000 control software.
The injections were performed using the KINJECT mode (injection10 min, dissociation 20-30 min). The flow rate during injection and regeneration was kept at 50 μl/min. […]

h S100A2 = target: T2, h S100A2 (human, UniProt P29034); assay: Western blot of purified S100 proteins on PVDF membrane
T2 construct: purified protein on a PVDF membrane; one of the 'other S100 family members'; its amido black loading band is very faint in the scan; also called human S100A2
T2 sequence (P29034 whole entry, one chain of several): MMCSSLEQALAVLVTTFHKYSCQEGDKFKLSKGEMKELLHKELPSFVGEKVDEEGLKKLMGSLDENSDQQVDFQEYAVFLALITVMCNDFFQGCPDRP

h S100B = target: T3, h S100B (human, UniProt P04271); assay: as above
T3 construct: purified protein on a PVDF membrane; one of the 'other S100 family members'; also called human S100B
T3 sequence (looked up): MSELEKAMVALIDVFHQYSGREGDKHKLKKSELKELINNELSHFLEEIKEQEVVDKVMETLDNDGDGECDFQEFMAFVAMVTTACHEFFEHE

h S100A9 = target: T4, h S100A9 (human, UniProt P06702); assay: as above
T4 construct: purified protein on a PVDF membrane; one of the 'other S100 family members'; also called human S100A9
T4 sequence (looked up): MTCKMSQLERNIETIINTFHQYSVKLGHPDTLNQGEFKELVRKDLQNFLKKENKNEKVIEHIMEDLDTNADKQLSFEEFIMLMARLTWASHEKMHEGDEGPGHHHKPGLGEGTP

h S100A1 = target: T5, h S100A1 (human, UniProt P23297); assay: as above
T5 construct: purified protein on a PVDF membrane; one of the 'other S100 family members'; also called human S100A1
T5 sequence (looked up): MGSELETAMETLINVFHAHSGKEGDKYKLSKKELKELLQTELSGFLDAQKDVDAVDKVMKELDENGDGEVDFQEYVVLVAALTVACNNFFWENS

h S100A12 = target: T6, h S100A12 (human, UniProt P80511); assay: as above
T6 construct: purified protein on a PVDF membrane; one of the 'other S100 family members'; no amido black loading band is visible for this lane in the scan; also called human S100A12
T6 sequence (looked up): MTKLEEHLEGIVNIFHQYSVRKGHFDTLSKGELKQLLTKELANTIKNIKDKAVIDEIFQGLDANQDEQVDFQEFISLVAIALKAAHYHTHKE

h S100A5 = target: T7, h S100A5 (human, UniProt P33763); assay: as above
T7 construct: purified protein on a PVDF membrane; one of the 'other S100 family members'; also called human S100A5
T7 sequence (looked up): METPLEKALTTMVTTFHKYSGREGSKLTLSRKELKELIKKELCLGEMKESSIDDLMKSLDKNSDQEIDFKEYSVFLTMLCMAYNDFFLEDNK

mouse S100A4 protein = target: T8, mouse S100A4 protein (mouse, UniProt P07091 2-101, limits assumed); assay: ELISA screen of hybridoma clones on mouse S100A4
T8 construct: also called murine S100A4; recombinant mouse S100A4 protein
T8 sequence (P07091 2-101 limits assumed, one chain of several): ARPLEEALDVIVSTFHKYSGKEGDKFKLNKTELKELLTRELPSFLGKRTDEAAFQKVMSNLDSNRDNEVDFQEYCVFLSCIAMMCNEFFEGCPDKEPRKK

human S100A4 protein = target: T9, human S100A4 protein (human, UniProt P26447 2-101, limits assumed); assay: Western blot of recombinant proteins and of cell extracts (FIG. 1)
T9 construct: Recombinant protein on blots and endogenous protein in extracts of human cell lines; also called human S100A4 recombinant protein
T9 sequence (P26447 2-101 limits assumed, one chain of several): as the sequence (P07091 2-101 limits assumed, one chain of several) above, with R2C, E6K, I11M, T31S, V57L, C92F, E96Q counted along it

[2] = target: T10, S100A4 peptide 8 (FLSCIAMMCNEF, 12-mer: 78-89) (human); assay: peptide ELISA (FIG. 4A)
T10 construct: also called P8
T10 peptide: FLSCIAMMCNEF

[3] = target: T11, S100A4 peptide 7 (RDNEVDFQEYCV, 12-mer: 66-77) (human); assay: peptide ELISA (FIG. 4A)
T11 construct: also called P7
T11 peptide: RDNEVDFQEYCV

[4] = target: T12, S100A4 peptide 9 (FEGFPDKQPRKK, 12-mer: 90-101) (human); assay: peptide ELISA, absorbance 450 nm (Pep-BG)
T12 construct: also called P9; C-terminal peptide
T12 peptide: FEGFPDKQPRKK

pep 5 = target: T13, pep 5; assay: peptide ELISA, absorbance 450 nm (Pep-BG)
T13 construct: also called S100A4 peptide 5; #5 (11-mer: 43-53)
T13 chain: PSFLGKRTDEA

pep 2 = target: T14, pep 2; assay: peptide ELISA, absorbance 450 nm (Pep-BG)
T14 construct: also called S100A4 peptide 2; #2 (10-mer: 11-20)
T14 chain: VMVSTFHKYS

pep 1 = target: T15, pep 1; assay: peptide ELISA, absorbance 450 nm (Pep-BG)
T15 construct: also called S100A4 peptide 1; #1 (10-mer: 1-10)
T15 chain: MACPLEKALD

pep 6 = target: T16, pep 6; assay: peptide ELISA, absorbance 450 nm (Pep-BG)
T16 construct: also called S100A4 peptide 6; #6 (12-mer: 54-65)
T16 chain: AFQKLMSNLDSN

pep 4 = target: T17, pep 4; assay: peptide ELISA, absorbance 450 nm (Pep-BG)
T17 construct: also called S100A4 peptide 4; #4 (11-mer: 32-42)
T17 chain: SELKELLTREL

pep 3 = target: T18, pep 3; assay: peptide ELISA, absorbance 450 nm (Pep-BG)
T18 construct: also called S100A4 peptide 3; #3 (11-mer: 21-31)
T18 chain: GKEGDKFKLNK

T1 sequence (P07091 whole entry): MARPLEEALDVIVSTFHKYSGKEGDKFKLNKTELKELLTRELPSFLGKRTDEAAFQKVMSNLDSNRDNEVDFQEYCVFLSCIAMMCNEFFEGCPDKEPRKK

Kd [1]: 0.114 nM
kon [1]: 287000 M⁻¹ s⁻¹
binding result (h S100A2): no binding
binding result (h S100B): no binding
binding result (h S100A9): no binding
binding result (h S100A1): no binding
binding result (h S100A12): no binding
binding result (h S100A5): no binding
binding result (mouse S100A4 protein): binds
binding result (human S100A4 protein): binds
binding result [2]: binds
binding result [3]: binds
binding result [4]: no binding
binding result (pep 5): no binding
binding result (pep 2): no binding
binding result (pep 1): no binding
binding result (pep 6): no binding
binding result (pep 4): no binding
binding result (pep 3): no binding
B1: anti-S100A4 mouse monoclonal antibody, clone 6B12 (antibody, V domains shown)
VH: DVQLQESGPGLVKPSQSLSLTCSVTGDSFTNDYYWNWIRQFPGSKLEWMGHIGYGGNINYNPSLKNRISITRDTSKNQFFLRLTSVTTEDTATYYCTRESFYDGYPFDYWGQGTLVTVSA
VL: DIQMTQTTSSLSASLGDRVTISCRASQDIRNYLNWYQQRPGGTLKLLIYYTSRLHSGVPSRFSGSGSGTDYSLTISNLEQEDIATYFCQQGNSLPRTFGGGTKLEIK
notes: constant regions are not; also called 6B12 mAb; mAb 6B12
